The values below come from paper PMC11574045, “A cofactor-induced repressive type of transcription factor condensation can be induced by synthetic peptides to suppress tumorigenesis” (The EMBO Journal, 2024).

B1: BHLHA9 (protein, UniProt Q7RTU4 1-235, looked up)
Class A basic …: MLRGAPGLGLTARKGAEDSAEDLGGPCPEPGGDSGVLGANGASCSRGEAEEPAGRRRARPVRSKARRMAANVRERKRILDYNEAFNALRRALRHDLGGKRLSKIATLRRAIHRIAALSLVLRASPAPRGPCGHLECHGPAARGDTGDTGASPPPPAGPSLARPDAARPSVPSAPRCASCPPHAPLARPSAVAEGPGLAQASGGSWRRCPGASSAGPPPWPRGYLRSAPGMGHPRS
B2: SSX3 (protein, UniProt Q99909 1-188, looked up)
Protein SSX3: MNGDDTFARRPTVGAQIPEKIQKAFDDIAKYFSKEEWEKMKVSEKIVYVYMKRKYEAMTKLGFKAILPSFMRNKRVTDFQGNDFDNDPNRGNQVQRPQMTFGRLQGIFPKIMPKKPAEEGNVSKEVPEASGPQNDGKQLCPPGKPTTSEKINMISGPKRGEHAWTHRLRERKQLVIYEEISDPEEDDE
B3: SNW1 (protein, UniProt Q13573 2-536, looked up)
SNW domain-containing protein …: ALTSFLPAPTQLSQDQLEAEEKARSQRSRQTSLVSSRREPPPYGYRKGWIPRLLEDFGDGGAFPEIHVAQYPLDMGRKKKMSNALAIQVDSEGKIKYDAIARQGQSKDKVIYSKYTDLVPKEVMNADDPDLQRPDEEAIKEITEKTRVALEKSVSQKVAAAMPVRAADKLAPAQYIRYTPSQQGVAFNSGAKQRVIRMVEMQKDPMEPPRFKINKKIPRGPPSPPAPVMHSPSRKMTVKEQQEWKIPPCISNWKNAKGYTIPLDKRLAADGRGLQTVHINENFAKLAEALYIADRKAREAVEMRAQVERKMAQKEKEKHEEKLREMAQKARERRAGIKTHVEKEDGEARERDEIRHDRRKERQHDRNLSRAAPDKRSKLQRNENRDISEVIALGVPNPRTSNEVQYDQRLFNQSKGMDSGFAGGEDEIYNVYDQAWRGGKDMAQSIYRPSKNLDKDMYGDDLEARIKTNRFVPDKEFSGSDRRQRGREGPVQFEEDPFGLDKFLEEAKQHGGSKRPSDSSRPKEHEHEGKKRRKE
B4: SOX10 (protein, UniProt P56693 1-466, looked up)
Transcription factor SOX-10: MAEEQDLSEVELSPVGSEEPRCLSPGSAPSLGPDGGGGGSGLRASPGPGELGKVKKEQQDGEADDDKFPVCIREAVSQVLSGYDWTLVPMPVRVNGASKSKPHVKRPMNAFMVWAQAARRKLADQYPHLHNAELSKTLGKLWRLLNESDKRPFIEEAERLRMQHKKDHPDYKYQPRRRKNGKAAQGEAECPGGEAEQGGTAAIQAHYKSAHLDHRHPGEGSPMSDGNPEHPSGQSHGPPTPPTTPKTELQSGKADPKRDGRSMGEGGKPHIDFGNVDIGEISHEVMSNMETFDVAELDQYLPPNGHPGHVSSYSAAGYGLGSALAVASGHSAWISKPPGVALPTVSPPGVDAKAQVKTETAGPQGPPHYTDQPSTSQIAYTSLSLPHYGSAFPSISRPQFDYSDHQPSGPYYGHSGQASGLYSAFSYMGPSQRPLYTAISDPSPSGPQSHSPTHWEQPVYTTLSRP
B5: SRY (protein, UniProt Q05738 1-392, looked up)
Sex-determining region Y …: MEGHVKRPMNAFMVWSRGERHKLAQQNPSMQNTEISKQLGCRWKSLTEAEKRPFFQEAQRLKILHREKYPNYKYQPHRRAKVSQRSGILQPAVASTKLYNLLQWDRNPHAITYRQDWSRAAHLYSKNQQSFYWQPVDIPTGHLQQQQQQQQQQQFHNHHQQQQQFYDHHQQQQQQQQQQQQFHDHHQQKQQFHDHHQQQQQFHDHHHHHQEQQFHDHHQQQQQFHDHQQQQQQQQQQQFHDHHQQKQQFHDHHHHQQQQQFHDHQQQQQQFHDHQQQQHQFHDHPQQKQQFHDHPQQQQQFHDHHHQQQQKQQFHDHHQQKQQFHDHHQQKQQFHDHHQQQQQFHDHHQQQQQQQQQQQQQFHDQQLTYLLTADITGWKGIKHCTGPDPEPF
B6: SOX7 (protein, UniProt Q9BT81 1-388, looked up)
Transcription factor SOX-7: MASLLGAYPWPEGLECPALDAELSDGQSPPAVPRPPGDKGSESRIRRPMNAFMVWAKDERKRLAVQNPDLHNAELSKMLGKSWKALTLSQKRPYVDEAERLRLQHMQDYPNYKYRPRRKKQAKRLCKRVDPGFLLSSLSRDQNALPEKRSGSRGALGEKEDRGEYSPGTALPSLRGCYHEGPAGGGGGGTPSSVDTYPYGLPTPPEMSPLDVLEPEQTFFSSPCQEEHGHPRRIPHLPGHPYSPEYAPSPLHCSHPLGSLALGQSPGVSMMSPVPGCPPSPAYYSPATYHPLHSNLQAHLGQLSPPPEHPGFDALDQLSQVELLGDMDRNEFDQYLNTPGHPDSATGAMALSGHVPVSQVTPTGPTETSLISVLADATATYYNSYSVS
B7: SP110 (protein, UniProt Q9HB58 1-689, looked up)
Sp110 nuclear body protein: MFTMTRAMEEALFQHFMHQKLGIAYAIHKPFPFFEGLLDNSIITKRMYMESLEACRNLIPVSRVVHNILTQLERTFNLSLLVTLFSQINLREYPNLVTIYRSFKRVGASYEWQSRDTPILLEAPTGLAEGSSLHTPLALPPPQPPQPSCSPCAPRVSEPGTSSQQSDEILSESPSPSDPVLPLPALIQEGRSTSVTNDKLTSKMNAEEDSEEMPSLLTSTVQVASDNLIPQIRDKEDPQEMPHSPLGSMPEIRDNSPEPNDPEEPQEVSSTPSDKKGKKRKRCIWSTPKRRHKKKSLPGGTASSRHGIQKKLKRVDQVPQKKDDSTCNSTVETRAQKARTECARKSRSEEIIDGTSEMNEGKRSQKTPSTPRRVTQGAASPGHGIQEKLQVVDKVTQRKDDSTWNSEVMMRVQKARTKCARKSRLKEKKKEKDICSSSKRRFQKNIHRRGKPKSDTVDFHCSKLPVTCGEAKGILYKKKMKHGSSVKCIRNEDGTWLTPNEFEVEGKGRNAKNWKRNIRCEGMTLGELLKRKNSDECEVCCQGGQLLCCGTCPRVFHEDCHIPPVEAKRMLWSCTFCRMKRSSGSQQCHHVSKTLERQMQPQDQLIRDYGEPFQEAMWLDLVKERLITEMYTVAWFVRDMRLMFRNHKTFYKASDFGQVGLDLEAEFEKDLKDVLGFHEANDGGFWTLP
B8: SPZ1 (protein, UniProt Q9BXG8 1-430, looked up)
Spermatogenic leucine zipper …: MASSAKSAEMPTISKTVNPTPDPHQEYLDPRITIALFEIGSHSPSSWGSLPFLKNSSHQVTEQQTAQKFNNLLKEIKDILKNMAGFEEKITEAKELFEETNITEDVSAHKENIRGLDKINEMLSTNLPVSLAPEKEDNEKKQEMILETNITEDVSAHKENIRGLDKINEMLSTNLPVSLAPEKEDNEKKQQMIMENQNSENTAQVFARDLVNRLEEKKVLNETQQSQEKAKNRLNVQEETMKIRNNMEQLLQEAEHWSKQHTELSKLIKSYQKSQKDISETLGNNGVGFQTQPNNEVSAKHELEEQVKKLSHDTYSLQLMAALLENECQILQQRVEILKELHHQKQGTLQEKPIQINYKQDKKNQKPSEAKKVEMYKQNKQAMKGTFWKKDRSCRSLDVCLNKKACNTQFNIHVARKALRGKMRSASSLR
B9: SP6 (protein, UniProt Q3SY56 1-376, looked up)
Transcription factor Sp6: MLTAVCGSLGSQHTEAPHASPPRLDLQPLQTYQGHTSPEAGDYPSPLQPGELQSLPLGPEVDFSQGYELPGASSRVTCEDLESDSPLAPGPFSKLLQPDMSHHYESWFRPTHPGAEDGSWWDLHPGTSWMDLPHTQGALTSPGHPGALQAGLGGYVGDHQLCAPPPHPHAHHLLPAAGGQHLLGPPDGAKALEVAAPESQGLDSSLDGAARPKGSRRSVPRSSGQTVCRCPNCLEAERLGAPCGPDGGKKKHLHNCHIPGCGKAYAKTSHLKAHLRWHSGDRPFVCNWLFCGKRFTRSDELQRHLQTHTGTKKFPCAVCSRVFMRSDHLAKHMKTHEGAKEEAAGAASGEGKAGGAVEPPGGKGKREAEGSVAPSN
B10: BCL6B (protein, UniProt Q8N143 1-479, looked up)
B-cell CLL/lymphoma 6 member …: MGSPAAPEGALGYVREFTRHSSDVLGNLNELRLRGILTDVTLLVGGQPLRAHKAVLIACSGFFYSIFRGRAGVGVDVLSLPGGPEARGFAPLLDFMYTSRLRLSPATAPAVLAAATYLQMEHVVQACHRFIQASYEPLGISLRPLEAEPPTPPTAPPPGSPRRSEGHPDPPTESRSCSQGPPSPASPDPKACNWKKYKYIVLNSQASQAGSLVGERSSGQPCPQARLPSGDEASSSSSSSSSSSEEGPIPGPQSRLSPTAATVQFKCGAPASTPYLLTSQAQDTSGSPSERARPLPGSEFFSCQNCEAVAGCSSGLDSLVPGDEDKPYKCQLCRSSFRYKGNLASHRTVHTGEKPYHCSICGARFNRPANLKTHSRIHSGEKPYKCETCGSRFVQVAHLRAHVLIHTGEKPYPCPTCGTRFRHLQTLKSHVRIHTGEKPYHCDPCGLHFRHKSQLRLHLRQKHGAATNTKVHYHILGGP
B11: SSX5 (protein, UniProt O60225 1-188, looked up)
Protein SSX5: MNGDDAFVRRPRVGSQIPEKMQKAFDDIAKYFSEKEWEKMKASEKIIYVYMKRKYEAMTKLGFKATLPPFMRNKRVADFQGNDFDNDPNRGNQVEHPQMTFGRLQGIFPKITPEKPAEEGNDSKGVPEASGPQNNGKQLRPSGKLNTSEKVNKTSGPKRGKHAWTHRVRERKQLVIYEEISDPQEDDE
B12: SP100 (protein, UniProt P23497 2-879, looked up)
Nuclear autoantigen Sp-100: AGGGGDLSTRRLNECISPVANEMNHLPAHSHDLQRMFTEDQGVDDRLLYDIVFKHFKRNKVEISNAIKKTFPFLEGLRDRDLITNKMFEDSQDSCRNLVPVQRVVYNVLSELEKTFNLPVLEALFSDVNMQEYPDLIHIYKGFENVIHDKLPLQESEEEEREERSGLQLSLEQGTGENSFRSLTWPPSGSPSHAGTTPPENGLSEHPCETEQINAKRKDTTSDKDDSLGSQQTNEQCAQKAEPTESCEQIAVQVNNGDAGREMPCPLPCDEESPEAELHNHGIQINSCSVRLVDIKKEKPFSNSKVECQAQARTHHNQASDIIVISSEDSEGSTDVDEPLEVFISAPRSEPVINNDNPLESNDEKEGQEATCSRPQIVPEPMDFRKLSTFRESFKKRVIGQDHDFSESSEEEAPAEASSGALRSKHGEKAPMTSRSTSTWRIPSRKRRFSSSDFSDLSNGEELQETCSSSLRRGSGSQPQEPENKKCSCVMCFPKGVPRSQEARTESSQASDMMDTMDVENNSTLEKHSGKRRKKRRHRSKVNGLQRGRKKDRPRKHLTLNNKVQKKRWQQRGRKANTRPLKRRRKRGPRIPKDENINFKQSELPVTCGEVKGTLYKERFKQGTSKKCIQSEDKKWFTPREFEIEGDRGASKNWKLSIRCGGYTLKVLMENKFLPEPPSTRKKRILESHNNTLVDPCEEHKKKNPDASVKFSEFLKKCSETWKTIFAKEKGKFEDMAKADKAHYEREMKTYIPPKGEKKKKFKDPNAPKRPPLAFFLFCSEYRPKIKGEHPGLSIDDVVKKLAGMWNNTAAADKQFYEKKAAKLKEKYKKDIAAYRAKGKPNSAKKRVVKAEKSKKKKEEEEDEEDEQEEENEEDDDK

In this test the test system is HEK293FT cells transfected with TF library. In words: Screening of TF condensates based on fluorescent puncta. It counts as cell-based. The following applies: Figure 1B numerical data; TF library screen, one value per transcriptional factor. In short, it runs like this:
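Each TF construct was introduced into HEK293FT cells using PEI at 4.8 μg/ml; glucose deprivation versus normal medium lasted 12 h. Automated confocal-style imaging of tagged TF staining, 50 fields per well, gave the puncta data.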
For B1, the “Z score of condensed fraction” value is recorded as -1.033.
Consider B2, for which the “Z score of condensed fraction” value was found to be 0.2674.
The same measure for B3: -0.7186; for B4: -0.1457; for B5: -0.331.
For B6 the value was -0.1184; for B7, -0.422; for B8, 0.06851.
The same measure for B9: 2.974; for B10: -0.2442; for B11: 0.09353.
Take B12: the “Z score of condensed fraction” value is given as -0.9758.
